In PMC6405930, “Conservation of the Amyloid Interactome Across Diverse Fibrillar Structures” (Scientific Reports, 2019):

B1: Ig α-1 chain C region: plasma/CSF protein bound to fibrils (protein, UniProt P01876 1-398, looked up)
Immunoglobulin heavy constant …: ASPTSPKVFPLSLCSTQPDGNVVIACLVQGFFPQEPLSVTWSESGQGVTARNFPPSQDASGDLYTTSSQLTLPATQCLAGKSVTCHVKHYTNPSQDVTVPCPVPSTPPTPSPSTPPTPSPSCCHPRLSLHRPALEDLLLGSEANLTCTLTGLRDASGVTFTWTPSSGKSAVQGPPERDLCGCYSVSSVLPGCAEPWNHGKTFTCTAAYPESKTPLTATLSKSGNTFRPEVHLLPPPSEELALNELVTLTCLARGFSPKDVLVRWLQGSQELPREKYLTWASRQEPSQGTTTFAVTSILRVAAEDWKKGDTFSCMVGHEALPLAFTQKTIDRLADWQMPPPYVVLDLPQETLEEETPGANLWPTTITFLTLFLLSLFYSTALTVTSVRGPSGNREGPQY
B2: Complement C1r subcomponent: plasma protein bound to fibrils (protein, UniProt P00736 18-705, looked up)
Complement C1r subcomponent: SIPIPQKLFGEVTSPLFPKPYPNNFETTTVITVPTGYRVKLVFQQFDLEPSEGCFYDYVKISADKKSLGRFCGQLGSPLGNPPGKKEFMSQGNKMLLTFHTDFSNEENGTIMFYKGFLAYYQAVDLDECASRSKSGEEDPQPQCQHLCHNYVGGYFCSCRPGYELQEDTHSCQAECSSELYTEASGYISSLEYPRSYPPDLRCNYSIRVERGLTLHLKFLEPFDIDDHQQVHCPYDQLQIYANGKNIGEFCGKQRPPDLDTSSNAVDLLFFTDESGDSRGWKLRYTTEIIKCPQPKTLDEFTIIQNLQPQYQFRDYFIATCKQGYQLIEGNQVLHSFTAVCQDDGTWHRAMPRCKIKDCGQPRNLPNGDFRYTTTMGVNTYKARIQYYCHEPYYKMQTRAGSRESEQGVYTCTAQGIWKNEQKGEKIPRCLPVCGKPVNPVEQRQRIIGGQKAKMGNFPWQVFTNIHGRGGGALLGDRWILTAAHTLYPKEHEAQSNASLDVFLGHTNVEELMKLGNHPIRRVSVHPDYRQDESYNFEGDIALLELENSVTLGPNLLPICLPDNDTFYDLGLMGYVSGFGVMEEKIAHDLRFVRLPVANPQACENWLRGKNRMDVFSQNMFCAGHPSLKQDACQGDSGGVFAVRDPNTDRWVATGIVSWGIGCSRGYGFYTKVLNYVDWIKKEMEEED
B3: Inter-α-trypsin inhibitor heavy chain H2: plasma protein bound to fibrils (protein, UniProt P19823 55-702, looked up)
Inter-alpha-trypsin inhibitor …: SLPGESEEMMEEVDQVTLYSYKVQSTITSRMATTMIQSKVVNNSPQPQNVVFDVQIPKGAFISNFSMTVDGKTFRSSIKEKTVGRALYAQARAKGKTAGLVRSSALDMENFRTEVNVLPGAKVQFELHYQEVKWRKLGSYEHRIYLQPGRLAKHLEVDVWVIEPQGLRFLHVPDTFEGHFDGVPVISKGQQKAHVSFKPTVAQQRICPNCRETAVDGELVVLYDVKREEKAGELEVFNGYFVHFFAPDNLDPIPKNILFVIDVSGSMWGVKMKQTVEAMKTILDDLRAEDHFSVIDFNQNIRTWRNDLISATKTQVADAKRYIEKIQPSGGTNINEALLRAIFILNEANNLGLLDPNSVSLIILVSDGDPTVGELKLSKIQKNVKENIQDNISLFSLGMGFDVDYDFLKRLSNENHGIAQRIYGNQDTSSQLKKFYNQVSTPLLRNVQFNYPHTSVTDVTQNNFHNYFGGSEIVVAGKFDPAKLDQIESVITATSANTQLVLETLAQMDDLQDFLSKDKHADPDFTRKLWAYLTINQLLAERSLAPTAAAKRRITRSILQMSLDHHIVTPLTSLVIENEAGDERMLADAPPQDPSCCSGALYYGSKVVPDSTPSWANPSPTPVISMLAQGSQVLESTPPPHVMRVEND

Experiments:
Ab1 fibrils [1] = system: T1, Ab1 fibrils; test: Fibril incubation with plasma, quantitative MS/MS of bound proteins; format: binding, human; conditions: 50:1 w/w plasma protein:fibril
T1 construct: Synthetic amyloid β peptide 1–40 was purchased from Caslo Aps (Lyngby, Denmark); purchased Caslo Aps (Lyngby, Denmark); host or cells: synthetic peptide
Method: (§1) Plasma and CSF solutions were centrifuged (40,000 g, 20 min) to remove any aggregates. The protein concentration was determined using 280 nm absorbance assuming 1 Abs = 1 mg/mL. Samples with fibril material (20 μg), plasma (500 μg) or CSF (40 μg) proteins were prepared in 200 μL PBS buffer with 5 mM EDTA. Control samples (without fibril material) were prepared similarly. All samples were incubated at room temperature for one hour under gentle agitation. Fibrils and fibril-bound proteins were pelleted by centrifugation at 17,000 g for 30 minutes. The supernatant (175 μL) was removed and the aggregate was re-suspended in 175 μL PBS and pelleted again before further preparation for gel analysis and spin-filter assisted digest for quantitative MS/MS.
(§2) The fibril-protein pellets were transferred to spin-filters (0.22 μm), washed twice in PBS (100 μL) and once in 1 M NaCl (100 μL). The fibrils and fibril-bound proteins were dissolved by one-hour incubation in 100 μL 6 M guanidinium chloride followed by elution from the spin-filter. The eluted proteins were loaded onto a 3 kDa MWCO filter unit for filter-assisted unfolding, reduction, alkylation, and trypsin digestion. In brief, samples were washed twice in 8 M urea, once in 8 M urea with 50 mM DTT, once in 8 M urea with 50 mM iodoaceteamide, and twice in 8 M Urea. The filter units were dried by centrifugation (14,000 g in 30 minutes) after every addition. Trypsin digestion was carried out with 0.25 μg sequencing grade trypsin from Sigma Aldrich in 50 mM ammonium bicarbonate overnight at 37 °C. The tryptic peptides were collected by centrifugation, acidified with TFA (0.1%) and micro-purified using POROS R2 column material (Applied Biosystems) packed in P200 pipette tips (Sarstedt).
(§3) LC-MS/MS analyses were performed on an EASY-nLC II system (Thermo Fisher Scientific) connected to a TripleTOF 5600+ mass spectrometer (Sciex) equipped with a NanoSpray III source (Sciex) and operated under Analyst TF 1.6.0 control.
(§4) The micro-purified tryptic peptides were dissolved in 0.1% formic acid, injected and trapped on an in-house packed trap column (2 cm × 100 μm I.D) with RP ReproSil-Pur C18-AQ 3 μm resin (Dr. Maisch GmbH). Peptides were eluted from the trap column and separated on a 15 cm analytical column (75 μm i.d.) packed in-house in a pulled emitter with RP ReproSil-Pur C18-AQ 3 μm resin (Dr. Maisch GmbH). Elution from the analytical column was performed with a linear gradient from 5% to 35% phase B (90% acetonitrile with 0.1% formic acid) over 20 min for protein identification and 50 min for quantitative analysis, respectively.
(§5) All samples were analysed three times, yielding nine MS/MS experiments for each fibril for both plasma and CSF. For the area-based extracted ion chromatogram (XIC) quantification, the acquisition method was set up as an information-dependent acquisition (IDA) experiment collecting up to 25 MS/MS spectra in each 1.6 sec cycle using an exclusion window of 6 sec.
(§6) XIC quantification was based on the average ion intensity of the three most abundant peptides for each protein. Only proteins quantified in at least four out of nine MS/MS experiments per fibril were included in the quantification. The total ion scores were visualized after grouping the proteins according to function (Figure S11).
(§7) For each MS/MS experiment, the ion intensities of the individual proteins were normalized to the total ion intensity of that MS/MS experiment to achieve a relative protein composition. The contribution of each protein was averaged over all nine MS/MS experiments (Tables 1 and 2).

Ab2 fibrils [2] = system: T2, Ab2 fibrils; test: as above; format: binding, human; conditions: 50:1 w/w plasma protein:fibril
T2 construct: Two structurally distinct fibrils of the Aβ(1–40) peptide associated with AD
Method: as §1, with “Samples with fibril material (20 μg), plasma (500 μg) or CSF (40 μg) proteins were prepared in 200 μL PBS buffer with 5 mM EDTA.” left out
as §2, §3, §4, §5, §6, §7

glucagon fibrils [3] = target: T3, glucagon fibrils (Homo sapiens, UniProt P01275); test: as above; format: binding; conditions: 50:1 w/w plasma protein:fibril
T3 construct: fibrils of the peptide hormone glucagon
T3 sequence (P01275 53-81 limits assumed): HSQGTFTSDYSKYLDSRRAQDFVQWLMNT
Method: as §1, with “Samples with fibril material (20 μg), plasma (500 μg) or CSF (40 μg) proteins were prepared in 200 μL PBS buffer with 5 mM EDTA.” left out
as §2, §3, §4, §5, §6, §7

C-36 fibrils [4] = target: T4, C-36 fibrils (Homo sapiens, UniProt P01009); test: as above; format: binding; conditions: 50:1 w/w plasma protein:fibril
T4 construct: the 36 residue C-terminal fragment of α1-antitrypsin (C-36)
T4 sequence (P01009 383-418 limits assumed): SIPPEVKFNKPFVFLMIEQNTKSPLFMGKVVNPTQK
Method: as §1, with “Samples with fibril material (20 μg), plasma (500 μg) or CSF (40 μg) proteins were prepared in 200 μL PBS buffer with 5 mM EDTA.” left out
as §2, §3, §4, §5, §6, §7

αSN fibrils [5] = target: T5, αSN fibrils (Homo sapiens, UniProt P37840); test: as above; format: binding; parameters: key to Identification status of plasma protein bound: αSN: *: Identified, but not quantified; —: Not identified in any of the samples; conditions: for Identification status of plasma protein bound: αSN: symbol cells
Method: as §1, with “Samples with fibril material (20 μg), plasma (500 μg) or CSF (40 μg) proteins were prepared in 200 μL PBS buffer with 5 mM EDTA.” left out
as §2, §3, §4, §5, §6, §7

FAS4-AD aggregates [6] = system: T6, FAS4-AD aggregates; test: as above; format: binding, human; parameters: key to Identification status of plasma protein bound: FAS4-AD: *: Identified, but not quantified; —: Not identified in any of the samples; conditions: for Identification status of plasma protein bound: FAS4-AD: symbol cells
T6 construct: aggregates of a mutated version of the FAS1-4 domain of TGFBIp
Method: as §1, with “Samples with fibril material (20 μg), plasma (500 μg) or CSF (40 μg) proteins were prepared in 200 μL PBS buffer with 5 mM EDTA.” left out
as §2, §3, §4, §5, §6, §7

Ab1 fibrils [7] = system: T1, Ab1 fibrils; test: Fibril incubation with CSF, quantitative MS/MS of bound proteins; format: binding, human; parameters: key to Identification status of CSF protein bound: Ab1: *: Identified, but not quantified; —: Not identified in any of the samples; conditions: symbol cells
Ab2 fibrils [8] = system: T2, Ab2 fibrils; test: as above; format: binding, human; parameters: key to Identification status of CSF protein bound: Ab2: *: Identified, but not quantified; —: Not identified in any of the samples; conditions: symbol cells
glucagon fibrils [9] = target: T3, glucagon fibrils; test: as above; format: binding; conditions: 4:1 w/w CSF protein:fibril
C-36 fibrils [10] = target: T4, C-36 fibrils; test: as above; format: binding; conditions: 4:1 w/w CSF protein:fibril
αSN fibrils [11] = target: T5, αSN fibrils; test: as above; format: binding; parameters: key to Identification status of CSF protein bound: αSN: *: Identified, but not quantified; —: Not identified in any of the samples; conditions: symbol cells
Method: as §1, with “Samples with fibril material (20 μg), plasma (500 μg) or CSF (40 μg) proteins were prepared in 200 μL PBS buffer with 5 mM EDTA.” left out
as §2, §3, §4, §5, §6, §7

FAS4-AD aggregates [12] = system: T6, FAS4-AD aggregates; test: as above; format: binding, human; parameters: key to Identification status of CSF protein bound: FAS4-AD: *: Identified, but not quantified; —: Not identified in any of the samples; conditions: symbol cells

Molecule | Relative composition of plasma proteins bound: Ab1 (Ab1 fibrils [1]) | Relative composition of plasma proteins bound: Ab2 (Ab2 fibrils [2]) | Relative composition of plasma proteins bound: Glucagon (glucagon fibrils [3]) | Relative composition of plasma proteins bound: C-36 (C-36 fibrils [4]) | Relative composition of plasma proteins bound: αSN (αSN fibrils [5]; 50:1 w/w plasma protein:fibril) | Relative composition of plasma proteins bound: FAS4-AD (FAS4-AD aggregates [6]; 50:1 w/w plasma protein:fibril) | Identification status of CSF protein bound: Ab1 (Ab1 fibrils [7]) | Identification status of CSF protein bound: Ab2 (Ab2 fibrils [8]) | Relative composition of CSF proteins bound: Glucagon (glucagon fibrils [9]) | Relative composition of CSF proteins bound: C-36 (C-36 fibrils [10]) | Identification status of CSF protein bound: αSN (αSN fibrils [11]) | Identification status of CSF protein bound: FAS4-AD (FAS4-AD aggregates [12]) | Identification status of plasma protein bound: αSN (αSN fibrils [5]) | Identification status of plasma protein bound: FAS4-AD (FAS4-AD aggregates [6])
B1 | 1.3 ± 0.1 % of total protein | 1.3 ± 0.3 % of total protein | 1.7 ± 0.0 % of total protein | 1.4 ± 0.4 % of total protein | 0.9 ± 0.3 % of total protein | 3.9 ± 1.6 % of total protein | * | * | 0.2 ± 0.1 % of total protein | 0.5 ± 0.1 % of total protein | — | — |  | 
B2 | 0.2 ± 0.0 % of total protein | 0.4 ± 0.1 % of total protein | 0.1 ± 0.0 % of total protein | 0.3 ± 0.1 % of total protein |  |  |  |  |  |  |  |  | * | —
B3 | 0.1 ± 0.0 % of total protein | 0.1 ± 0.0 % of total protein | 2.7 ± 0.2 % of total protein | 0.3 ± 0.1 % of total protein |  |  |  |  |  |  |  |  | * | —
